Experimental data from the supplement of paper PMC6757056.
± gives the standard deviation of the averaged measurements.

B1: library; a variant is named by its letters at N, in order (parent)
chain: GCUGUCACCGAGAAACUGUGAAGUAUAUCUUAAACCUGGGCACUUAAAAGAUAUAUGGAGUUAGUAGUGCAACCUGCUCGGUCUGAUGAGUCCNNNNNNGGACGAAACAGC

Legend:
[1] = variants of: B1; test: FACS-Seq fitted mean relative fluorescence mCherry/BFP without ligand (log10 relative fluorescence); HEK293T; ligand: cyclic di-GMP (c-di-GMP-II aptamer); higher = higher reporter protein expression; conditions: ligand present: no
How it was run: (§1)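 Genomic DNA from 6 mCherry/BFP sort bins was PCR-amplified, barcoded and sequenced on MiSeq. The sorted cells were enriched HEK293T libraries, lentivirally transduced with a ribozyme-switch mCherry reporter and an EF1α-BFP marker, incubated with or without ligand for 48 h. Fluorescence derives from a normal fit to the bin counts. The fit was on log10(mCherry/BFP), and means were scaled to five spiked-in control ribozymes.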

[2] = variants of: B1; test: normalized RNA/DNA level without ligand (relative to sTRSVctl = 100) (log10 (% of sTRSVctl)); HEK293T; ligand: cyclic di-GMP (c-di-GMP-II aptamer); higher = less ribozyme self-cleavage, higher mRNA level; conditions: reporter: mCherry (pCS4076), ligand present: no
How it was run: (§2)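 RNA level was computed as RNA reads over DNA reads divided by a spiked-in non-cleaving sequence or by the top sequences, then scaled and log-transformed. Scaling was ×100 with log10, the top group was 25 sequences, and the threshold was ≥100 DNA reads. The reads came from HEK293T cells transfected at 4 µg per 6-well well with ribozyme switch library plasmids (mCherry, or eGFP in some ligand experiments). Total RNA was extracted with EDTA 72 h after transfection, with any ligand added 1 h before it.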

[3] = variants of: B1; test: FACS-Seq fitted mean relative fluorescence mCherry/BFP with ligand (log10 relative fluorescence); HEK293T; ligand: cyclic di-GMP (c-di-GMP-II aptamer); ligand concentration (+) FACS-Seq: 1 mM; higher = higher reporter protein expression; conditions: ligand present: yes
How it was run: as §1

[4] = variants of: B1; test: normalized RNA/DNA level with ligand (relative to sTRSVctl = 100) (log10 (% of sTRSVctl)); HEK293T; ligand: cyclic di-GMP (c-di-GMP-II aptamer); ligand concentration (+) RNA-Seq: 1 mM; higher = less ribozyme self-cleavage, higher mRNA level; conditions: reporter: mCherry (pCS4076), ligand present: yes
How it was run: as §2

| Variant | FACS-Seq fitted mean (log10) [1] | normalized RNA/DNA level without ligand (log10) [2] | FACS-Seq fitted mean (log10) [3] | normalized RNA/DNA level with ligand (log10) [4] |
| --- | --- | --- | --- | --- |
| UUGAAG | -0.189 ± 0.02 | 1.639 ± 0.0094 | 0.0171 ± 0.037 | 1.81 ± 0.12 |
| UUGAAA | -0.168 ± 0.075 | 1.607 ± 0.0064 | -0.0658 ± 0.065 | 1.76 ± 0.14 |
| GUCCUG | -0.102 ± 0.019 | 1.68 ± 0.022 | 0.19 ± 0.09 | 1.83 ± 0.14 |
| AUACGA | -0.518 ± 0.09 | 1.46 ± 0.08 | -0.228 ± 0.13 | 1.67 ± 0.14 |
| GUAGUA | -0.69 ± 0.1 | 1.663 ± 0.0053 | -0.47 ± 0.075 | 1.74 ± 0.099 |
| CUCUCU | -0.0993 ± 0.11 | 1.63 ± 0.06 | 0.163 ± 0.0032 | 1.79 ± 0.13 |
| CUCAUA | -0.575 ± 0.039 | 1.43 ± 0.079 | -0.298 ± 0.012 | 1.65 ± 0.14 |
| UUAAAU | -0.418 ± 0.091 | 1.711 ± 0.0058 | -0.275 ± 0.024 | 1.86 ± 0.11 |
| CUCUUA | -0.241 ± 0.082 | 1.46 ± 0.067 | -0.0535 ± 0.053 | 1.65 ± 0.11 |
| CUCUUG | 0.116 ± 0.092 | 1.73 ± 0.029 | 0.381 ± 0.043 | 1.86 ± 0.096 |
| GUAAAG | -0.104 ± 0.13 | 1.55 ± 0.078 | 0.22888 ± 7.2e-05 | 1.74 ± 0.065 |
| GUAAAU | -0.979 ± 0.044 | 1.6 ± 0.051 | -0.774 ± 0.011 | 1.76 ± 0.084 |
| GUAAAA | -0.251 ± 0.15 | 1.57 ± 0.024 | 0.00851 ± 0.01 | 1.73 ± 0.094 |
| CUAGAA | -0.5 ± 0.054 | 1.38 ± 0.091 | -0.134 ± 0.032 | 1.6 ± 0.1 |
| CUAGAC | -0.239 ± 0.047 | 1.67 ± 0.053 | -0.0103 ± 0.011 | 1.81 ± 0.093 |
| AUAACG | -0.0695 ± 0.081 | 1.58 ± 0.027 | 0.0722 ± 0.12 | 1.76 ± 0.12 |
| GUAGGA | -0.422 ± 0.02 | 1.43 ± 0.081 | -0.137 ± 0.14 | 1.64 ± 0.11 |
| UUGCGU | -0.322 ± 0.017 | 1.69 ± 0.035 | -0.00149 ± 0.0032 | 1.86 ± 0.084 |
| UUACUA | -0.111 ± 0.12 | 1.64 ± 0.029 | 0.155 ± 0.095 | 1.77 ± 0.13 |
| UUGACA | -0.91 ± 0.064 | 1.701 ± 0.0052 | -0.508 ± 0.077 | 1.83 ± 0.14 |
| GUCUUG | -0.245 ± 0.061 | 1.61 ± 0.052 | 0.124 ± 0.019 | 1.77 ± 0.12 |
| AUAGUU | -0.615 ± 0.079 | 1.539 ± 0.0099 | -0.438 ± 0.02 | 1.73 ± 0.089 |
| AUAGUA | 0.0378 ± 0.13 | 1.5 ± 0.034 | 0.3053 ± 0.00099 | 1.65 ± 0.046 |
| CUCGAA | -0.00262 ± 0.0023 | 1.41 ± 0.12 | 0.32 ± 0.035 | 1.6 ± 0.097 |

| Variant | FACS-Seq fitted mean (log10) [1] | normalized RNA/DNA level without ligand (log10) [2] | FACS-Seq fitted mean (log10) [3] | normalized RNA/DNA level with ligand (log10) [4] |
| --- | --- | --- | --- | --- |
| CUCUAG | 0.319 ± 0.13 | 1.764 ± 0.015 | 0.4467 ± 0.0016 | 1.83 ± 0.11 |
| CUCUAU | -0.312 ± 0.034 | 1.61 ± 0.036 | -0.00561 ± 0.064 | 1.77 ± 0.096 |
| CUCUAC | -0.26 ± 0.15 | 1.69 ± 0.038 | -0.0375 ± 0.07 | 1.82 ± 0.11 |
| CUCUAA | -0.433 ± 0.11 | 1.4 ± 0.083 | -0.0646 ± 0.21 | 1.61 ± 0.033 |
| CUCGCU | -0.0213 ± 0.09 | 1.8 ± 0.047 | 0.226 ± 0.12 | 1.9 ± 0.079 |
| AUGCGA | -0.411 ± 0.064 | 1.49 ± 0.079 | -0.0888 ± 0.022 | 1.66 ± 0.13 |
| GUAUAG | -1.32 ± 0.018 | 1.56 ± 0.12 | -1.05 ± 0.12 | 1.74 ± 0.063 |
| AUGAAA | -0.678 ± 0.011 | 1.4 ± 0.14 | -0.502 ± 0.026 | 1.64 ± 0.1 |
| AUGAAC | -0.0137 ± 0.15 | 1.649 ± 0.0059 | 0.334 ± 0.026 | 1.79 ± 0.1 |
| GUGCAU | -0.575 ± 0.042 | 1.73 ± 0.028 | -0.302 ± 0.062 | 1.85 ± 0.18 |
| CUGAAU | -0.0233 ± 0.075 | 1.43 ± 0.045 | 0.269 ± 0.11 | 1.61 ± 0.075 |
| CUGAAA | -0.638 ± 0.031 | 1.28 ± 0.097 | -0.374 ± 0.059 | 1.43 ± 0.12 |
| GUCGCG | -0.376 ± 0.016 | 1.76 ± 0.018 | -0.0454 ± 0.13 | 1.82 ± 0.071 |
| GUCGCU | -0.798 ± 0.048 | 1.683 ± 0.0047 | -0.654 ± 0.068 | 1.87 ± 0.065 |
| AUGAUG | -0.239 ± 0.054 | 1.6 ± 0.069 | 0.056 ± 0.078 | 1.77 ± 0.11 |
| AUGAUU | -0.57 ± 0.11 | 1.41 ± 0.17 | -0.0144 ± 0.094 | 1.62 ± 0.11 |
| GUAAUG | -0.57 ± 0.093 | 1.63 ± 0.061 | -0.481 ± 0.029 | 1.75 ± 0.066 |
| CUCCGU | 0.15 ± 0.23 | 1.8 ± 0.02 | 0.423 ± 0.0021 | 1.88 ± 0.093 |
| GUAGCA | 0.112 ± 0.04 | 1.83 ± 0.043 | 0.201 ± 0.053 | 1.87 ± 0.13 |
| UUAUCC | -0.109 ± 0.15 | 1.76 ± 0.023 | 0.218 ± 0.082 | 1.86 ± 0.084 |
| CGUUCU | -0.248 ± 0.08 | 1.51 ± 0.084 | 0.0758 ± 0.01 | 1.68 ± 0.068 |
| AUCUGC | -0.0609 ± 0.046 | 1.731 ± 0.0043 | 0.176 ± 0.085 | 1.88 ± 0.14 |
| AUCUGG | -0.899 ± 0.093 | 1.67 ± 0.058 | -0.683 ± 0.046 | 1.81 ± 0.12 |
| UUCAAU | -0.187 ± 0.012 | 1.71 ± 0.03 | 0.267 ± 0.037 | 1.82 ± 0.14 |

| Variant | FACS-Seq fitted mean (log10) [1] | normalized RNA/DNA level without ligand (log10) [2] | FACS-Seq fitted mean (log10) [3] | normalized RNA/DNA level with ligand (log10) [4] |
| --- | --- | --- | --- | --- |
| UUCAAC | -0.163 ± 0.071 | 1.695 ± 0.004 | 0.153 ± 0.024 | 1.82 ± 0.12 |
| AUAGGG | -0.534 ± 0.02 | 1.41 ± 0.12 | -0.187 ± 0.073 | 1.59 ± 0.15 |
| AUAGGU | -0.384 ± 0.071 | 1.51 ± 0.061 | -0.171 ± 0.092 | 1.69 ± 0.14 |
| UUAAGA | -0.227 ± 0.096 | 1.613 ± 0.01 | 0.2 ± 0.0086 | 1.76 ± 0.12 |
| AUAAUU | -0.558 ± 0.032 | 1.55 ± 0.027 | -0.213 ± 0.038 | 1.72 ± 0.087 |
| AUAAUA | -0.503 ± 0.0074 | 1.58 ± 0.0077 | -0.158 ± 0.15 | 1.75 ± 0.092 |
| CUGCAA | -0.468 ± 0.049 | 1.36 ± 0.11 | -0.0644 ± 0.035 | 1.59 ± 0.097 |
| AUGGAA | -0.588 ± 0.0092 | 1.33 ± 0.13 | -0.293 ± 0.033 | 1.53 ± 0.14 |
| GUAUGA | -0.487 ± 0.16 | 1.42 ± 0.092 | -0.189 ± 0.072 | 1.67 ± 0.081 |
| CUCAGA | -0.23 ± 0.18 | 1.64 ± 0.041 | 0.0277 ± 0.043 | 1.78 ± 0.064 |
| AUCGGA | -0.605 ± 0.038 | 1.53 ± 0.043 | -0.31 ± 0.055 | 1.7 ± 0.086 |
| GUAUCA | -0.201 ± 0.17 | 1.62 ± 0.02 | 0.0998 ± 0.097 | 1.78 ± 0.094 |
| GUAAGA | -0.617 ± 0.027 | 1.46 ± 0.061 | -0.308 ± 0.026 | 1.61 ± 0.13 |
| GUAAGG | -0.295 ± 0.022 | 1.59 ± 0.078 | 0.0239 ± 0.038 | 1.74 ± 0.067 |
| AUGACU | -1.21 ± 0.091 | 1.71 ± 0.0041 | -0.93 ± 0.06 | 1.85 ± 0.11 |
| GUCUGU | -0.165 ± 0.035 | 1.66 ± 0.044 | 0.0419 ± 0.17 | 1.81 ± 0.069 |
| GUACAA | -0.163 ± 0.036 | 1.5 ± 0.065 | 0.191 ± 0.07 | 1.68 ± 0.061 |
| CUACGA | -0.199 ± 0.061 | 1.62 ± 0.038 | 0.0797 ± 0.066 | 1.79 ± 0.086 |
| UUAAUG | -0.155 ± 0.022 | 1.6 ± 0.035 | 0.183 ± 0.0019 | 1.79 ± 0.071 |
| GUCAAU | -0.201 ± 0.12 | 1.63 ± 0.034 | 0.152 ± 0.028 | 1.78 ± 0.087 |
| GUCAAA | -0.258 ± 0.074 | 1.56 ± 0.036 | 0.0433 ± 0.047 | 1.73 ± 0.095 |
| GUCCAA | 0.102 ± 0.033 | 1.57 ± 0.052 | 0.317 ± 0.11 | 1.74 ± 0.12 |
| CUAACU | -0.381 ± 0.006 | 1.59 ± 0.025 | -0.0873 ± 0.0047 | 1.74 ± 0.1 |
